Results from US20060259987A1 (UNIVERSITY OF UTAH RESEARCH FOUNDATION, published 2006).

Tests used:
[1] = molecular target: T1, human factor Xa (human, UniProt P00742 41-179; P00742 235-488, limits assumed); assay: residual enzyme activity against time, pseudo-first-order, progressive (no heparin)
T1 construct: the active enzyme is a two-chain form of it; also called fXa

[2] = molecular target: T2, human neutrophil elastase (human, UniProt P08246 30-247, limits assumed); assay: cell-based or functional assay
T2 sequence (looked up): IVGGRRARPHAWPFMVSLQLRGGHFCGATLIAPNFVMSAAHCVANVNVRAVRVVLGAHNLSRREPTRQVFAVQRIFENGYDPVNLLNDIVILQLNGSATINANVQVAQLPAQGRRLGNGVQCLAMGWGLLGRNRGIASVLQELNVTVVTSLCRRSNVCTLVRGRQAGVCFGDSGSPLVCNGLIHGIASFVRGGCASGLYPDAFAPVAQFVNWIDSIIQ

[3] = molecular target: T2, human neutrophil elastase; assay: cell-based or functional assay; remark: listed apart in the source
[4] = molecular target: T3, human neutrophil cathepsin G (human, UniProt P08311 21-244); assay: cell-based or functional assay
T3 sequence (looked up): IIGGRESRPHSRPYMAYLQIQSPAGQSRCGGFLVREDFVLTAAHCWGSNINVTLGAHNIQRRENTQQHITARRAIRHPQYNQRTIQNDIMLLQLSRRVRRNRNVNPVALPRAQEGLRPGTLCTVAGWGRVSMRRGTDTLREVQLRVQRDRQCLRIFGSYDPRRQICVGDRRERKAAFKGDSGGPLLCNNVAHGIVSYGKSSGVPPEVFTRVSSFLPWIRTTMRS

[5] = molecular target: T1, human factor Xa; assay: cell-based or functional assay
[6] = molecular target: T4, human thrombin (human, UniProt P00734 328-622); assay: cell-based or functional assay
[7] = molecular target: T1, human factor Xa; assay: residual enzyme activity against time, pseudo-first-order, with heparin
Description: Polybrene was added with the chromogenic substrate to quench the heparin dependent reaction. The observed pseudo-first-order rate constants were calculated for each heparin (1 nM-5 nM) concentration from the slope of the log of residual proteinase activity vs. time. This was plotted against the heparin concentration to calculate the second-order rate constant for the inhibition by the heparin-ATIII complex, (Kₕₑₚ) from the equation Kobs=Kₕₑₚ[H]ₒ([AT]ₒ/[AT]ₒ+Kd)+Kuncat[AT]ₒ

[8] = molecular target: T4, human thrombin; assay: thrombin inhibition rate in the presence of heparin (HAH)
[9] = molecular target: T4, human thrombin; assay: thrombin inhibition rate in the absence of heparin
[10] = molecular target: T4, human thrombin; assay: residual enzyme activity against time, pseudo-first-order, progressive (no heparin)
[11] = molecular target: T5, thrombin (human, UniProt P00734 328-622); assay: heparin cofactor assay, HCA expt #3; ATIII titrated on 10 nM thrombin + 50 ug/ml UFH, chromogenic readout
Description: (§1) After 3 minutes, the reactions were quenched with polybrene and chromogenic substrate S2238 (thrombin) or S2765 (fXa), and the initial rate of chromophore production (405 nm) recorded to obtain a measurement residual, uninhibited thrombin or factor Xa. IC50s were determined from plots of ATIII concentration vs. percent residual target enzyme activity.

[12] = molecular target: T5, thrombin; assay: cell-based or functional assay
[13] = molecular target: T6, factor Xa (human, UniProt P00742 41-179; P00742 235-488, limits assumed); assay: cell-based or functional assay
[14] = molecular target: T6, factor Xa; assay: heparin cofactor assay, HCA expt #3; ATIII titrated on 10 nM fXa + 50 ug/ml UFH, chromogenic readout
Description: as §1

[15] = molecular target: T6, factor Xa; assay: heparin cofactor assay, HCA expt #2; ATIII titrated on 10 nM fXa + 50 ug/ml UFH, chromogenic readout
Description: as §1

[16] = molecular target: T5, thrombin; assay: heparin cofactor assay, HCA expt #2; ATIII titrated on 10 nM thrombin + 50 ug/ml UFH, chromogenic readout
Description: as §1

T6 sequence (P00742 41-179 limits assumed, form in doubt, chain 1 of 2): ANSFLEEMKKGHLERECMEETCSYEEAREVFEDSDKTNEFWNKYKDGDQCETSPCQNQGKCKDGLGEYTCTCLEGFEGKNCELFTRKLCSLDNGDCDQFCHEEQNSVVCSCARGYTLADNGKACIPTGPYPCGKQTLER
T6 sequence (P00742 235-488 limits assumed, form in doubt, chain 2 of 2): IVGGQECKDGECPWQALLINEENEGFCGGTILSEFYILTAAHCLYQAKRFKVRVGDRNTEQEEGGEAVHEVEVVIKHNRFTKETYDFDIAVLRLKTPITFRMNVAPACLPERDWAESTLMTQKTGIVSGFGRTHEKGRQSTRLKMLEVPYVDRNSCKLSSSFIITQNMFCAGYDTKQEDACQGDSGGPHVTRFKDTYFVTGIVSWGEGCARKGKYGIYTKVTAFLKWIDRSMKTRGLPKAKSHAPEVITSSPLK
T1 sequence (P00742 41-179 limits assumed, chain 1 of 2): as the sequence (P00742 41-179 limits assumed, form in doubt, chain 1 of 2) above
T1 sequence (P00742 235-488 limits assumed, chain 2 of 2): as the sequence (P00742 235-488 limits assumed, form in doubt, chain 2 of 2) above

B1: LEAI.474 (other)
chain: SPVDICTAKPRDIPMNPMCIYRSPEKKATEDEGSEQKIPEATNRRVWELSKANSRFATTFYQHLADSKNDNDNIFLSPLSISTAFAMTKLGACNDTLQQLMEVFKFDTISEKTSDQIHFFFAKLNCRLYRKANKASKLVSANRLFGDKSLTFNETYQDISELVYGAKLQPLDFKENAEQSRAAINKWVSNKTEGRITDVIPSEAINELTVLVLVNTIYFKGLWKSKFSPENTRKELFYKADGESCSASMMYQEGKFRYRRVAEGTQVLELPFKGDDITMVLILPKPEKSLAKVEKELTPEVLQEWLDELEEMMLVVHMPRFRIEDGFSLKEQLQDMGLVDLFSPEKSKLPGIVAEGRDDLYVSDAFHKAFLEVNEEGSEAAASTALEAQGRSLNPNRVTFKANRPFLVFIREVPLNTIIFMGRVANPCVK
notes: Recombinant human ATIII variant made in Drosophila S2 cells on the S137A background; also called DES.LEAI.474; LEAQ parent
kapp (apparent second-order inhibition rate constant) [1]: 10700 M⁻¹ s⁻¹
halflife, min (HNE/hep) [2]: 38.4 min
rsd IIa, HNE (CA #51, stg 1 conc 200) [3]: 2%
rsd IIa, HNE (CA #52, stg 1 conc 200) [3]: 3%
rsd Xa, HNE (CA #51, stg 1 conc 200) [3]: -3%
rsd Xa, HNE (CA #52, stg 1 conc 200) [3]: 3%
rsd IIa, catG (CA #51, stg 1 conc 200) [4]: 2%
rsd IIa, catG (CA #52, stg 1 conc 200) [4]: 3%
rsd Xa, catG (CA #51, stg 1 conc 200) [4]: -2%
rsd Xa, catG (CA #52, stg 1 conc 200) [4]: 1%
IC50 fXa/UFH (HCA #5) [5]: 23 nM
IC50 fXa/UFH (HCA #6) [5]: 33 nM
IC50 fXa/UFH; HCA #2 [5]: 20 nM
IC50 fXa/UFH; HCA #3 [5]: 16 nM
IC50 fXa/UFH; HCA #4 [5]: 13 nM
rsd Xa, no add (CA #51, stg 1 conc 200) [5]: -1%
rsd Xa, no add (CA #52, stg 1 conc 200) [5]: 2%
IC50 IIa/UFH (HCA #5) [6]: 65 nM
IC50 IIa/UFH (HCA #6) [6]: 55 nM
IC50 IIa/UFH; HCA #2 [6]: 65 nM
IC50 IIa/UFH; HCA #3 [6]: 47 nM
IC50 IIa/UFH; HCA #4 [6]: 50 nM
rsd IIa, no add (CA #51, stg 1 conc 200) [6]: 2%
rsd IIa, no add (CA #52, stg 1 conc 200) [6]: 4%
kapp (apparent second-order inhibition rate constant) [7]: 1.25e+06 M⁻¹ s⁻¹
Kapp, thrombin HAH [8]: 2e+06 M⁻¹ s⁻¹
Kapp, thrombin progressive [9]: 2700 M⁻¹ s⁻¹
kapp (apparent second-order inhibition rate constant) [10]: 2680 M⁻¹ s⁻¹

B2: 7EVEA.452 (other)
chain: SPVDICTAKPRDIPMNPMCIYRSPEKKATEDEGSEQKIPEATNRRVWELSKANSRFATTFYQHLADSKNDNDNIFLSPLSISTAFAMTKLGACNDTLQQLMEVFKFDTISEKTSDQIHFFFAKLNCRLYRKANKASKLVSANRLFGDKSLTFNETYQDISELVYGAKLQPLDFKENAEQSRAAINKWVSNKTEGRITDVIPSEAINELTVLVLVNTIYFKGLWKSKFSPENTRKELFYKADGESCSASMMYQEGKFRYRRVAEGTQVLELPFKGDDITMVLILPKPEKSLAKVEKELTPEVLQEWLDELEEMMLVVHMPRFRIEDGFSLKEQLQDMGLVDLFSPEKSKLPGIVAEGRDDLYVSDAFHKAFLEVNEEGSEAAASTEVELAGRSLNPNRVTFKANRPFLVFIREVPLNTIIFMGRVANPCVK
modifications: N-linked glycans added by Drosophila S2 cells; not carried by the letters
notes: Made in Drosophila S2 cells (DES) on the S137A background; N-terminus printed as SPVDI---
IC50 [11]: 750 nM
Rsd. IIa No add; CA expt #8; stg1 conc 200 [12]: 12 % of activity without ATIII
rsd. IIa catG; CA expt #8; stg1 conc 200 [12]: 14 % of activity without ATIII
rsd. IIa hne; CA expt #8; stg1 conc 200 [12]: 46 % of activity without ATIII
rsd. Xa catG; CA expt #8; stg1 conc 200 [13]: 1 % of activity without ATIII
rsd. Xa hne; CA expt #8; stg1 conc 200 [13]: 2 % of activity without ATIII
rsd. Xa no add; CA expt #8; stg1 conc 200 [13]: 1 % of activity without ATIII
IC50 [14]: 24 nM

B3: 7EVEA.451 (other)
chain: SPVDICTAKPRDIPMNPMCIYRSPEKKATEDEGSEQKIPEATNRRVWELSKANSRFATTFYQHLADSKNDNDNIFLSPLSISTAFAMTKLGACNDTLQQLMEVFKFDTISEKTSDQIHFFFAKLNCRLYRKANKASKLVSANRLFGDKSLTFNETYQDISELVYGAKLQPLDFKENAEQSRAAINKWVSNKTEGRITDVIPSEAINELTVLVLVNTIYFKGLWKSKFSPENTRKELFYKADGESCSASMMYQEGKFRYRRVAEGTQVLELPFKGDDITMVLILPKPEKSLAKVEKELTPEVLQEWLDELEEMMLVVHMPRFRIEDGFSLKEQLQDMGLVDLFSPEKSKLPGIVAEGRDDLYVSDAFHKAFLEVNEEGSEAAASTEVEIAGRSLNPNRVTFKANRPFLVFIREVPLNTIIFMGRVANPCVK
modifications: N-linked glycans added by Drosophila S2 cells; not carried by the letters
notes: as for B2
IC50 [11]: 450 nM
IC50 [15]: 38 nM
IC50 [16]: 400 nM
Rsd. IIa No add; CA expt #8; stg1 conc 200 [12]: 6 % of activity without ATIII
rsd. IIa catG; CA expt #8; stg1 conc 200 [12]: 7 % of activity without ATIII
rsd. IIa hne; CA expt #8; stg1 conc 200 [12]: 12 % of activity without ATIII
rsd. Xa catG; CA expt #8; stg1 conc 200 [13]: 1 % of activity without ATIII
rsd. Xa hne; CA expt #8; stg1 conc 200 [13]: 1 % of activity without ATIII
rsd. Xa no add; CA expt #8; stg1 conc 200 [13]: 1 % of activity without ATIII
IC50 [14]: 50 nM

B4: 7EVEA.454 (other)
chain: SPVDICTAKPRDIPMNPMCIYRSPEKKATEDEGSEQKIPEATNRRVWELSKANSRFATTFYQHLADSKNDNDNIFLSPLSISTAFAMTKLGACNDTLQQLMEVFKFDTISEKTSDQIHFFFAKLNCRLYRKANKASKLVSANRLFGDKSLTFNETYQDISELVYGAKLQPLDFKENAEQSRAAINKWVSNKTEGRITDVIPSEAINELTVLVLVNTIYFKGLWKSKFSPENTRKELFYKADGESCSASMMYQEGKFRYRRVAEGTQVLELPFKGDDITMVLILPKPEKSLAKVEKELTPEVLQEWLDELEEMMLVVHMPRFRIEDGFSLKEQLQDMGLVDLFSPEKSKLPGIVAEGRDDLYVSDAFHKAFLEVNEEGSEAAASTEVEWAGRSLNPNRVTFKANRPFLVFIREVPLNTIIFMGRVANPCVK
modifications: N-linked glycans added by Drosophila S2 cells; not carried by the letters
notes: as for B2
IC50 [11]: 610 nM
Rsd. IIa No add; CA expt #8; stg1 conc 200 [12]: 23 % of activity without ATIII
rsd. IIa catG; CA expt #8; stg1 conc 200 [12]: 93 % of activity without ATIII
rsd. IIa hne; CA expt #8; stg1 conc 200 [12]: 53 % of activity without ATIII
rsd. Xa catG; CA expt #8; stg1 conc 200 [13]: 2 % of activity without ATIII
rsd. Xa hne; CA expt #8; stg1 conc 200 [13]: 1 % of activity without ATIII
rsd. Xa no add; CA expt #8; stg1 conc 200 [13]: 1 % of activity without ATIII
IC50 [14]: 20 nM

B5: 7EVEA.453 (other)
chain: SPVDICTAKPRDIPMNPMCIYRSPEKKATEDEGSEQKIPEATNRRVWELSKANSRFATTFYQHLADSKNDNDNIFLSPLSISTAFAMTKLGACNDTLQQLMEVFKFDTISEKTSDQIHFFFAKLNCRLYRKANKASKLVSANRLFGDKSLTFNETYQDISELVYGAKLQPLDFKENAEQSRAAINKWVSNKTEGRITDVIPSEAINELTVLVLVNTIYFKGLWKSKFSPENTRKELFYKADGESCSASMMYQEGKFRYRRVAEGTQVLELPFKGDDITMVLILPKPEKSLAKVEKELTPEVLQEWLDELEEMMLVVHMPRFRIEDGFSLKEQLQDMGLVDLFSPEKSKLPGIVAEGRDDLYVSDAFHKAFLEVNEEGSEAAASTEVEFAGRSLNPNRVTFKANRPFLVFIREVPLNTIIFMGRVANPCVK
modifications: N-linked glycans added by Drosophila S2 cells; not carried by the letters
notes: as for B2
IC50 [11]: 450 nM
Rsd. IIa No add; CA expt #8; stg1 conc 200 [12]: 14 % of activity without ATIII
rsd. IIa catG; CA expt #8; stg1 conc 200 [12]: 62 % of activity without ATIII
rsd. IIa hne; CA expt #8; stg1 conc 200 [12]: 35 % of activity without ATIII
rsd. Xa catG; CA expt #8; stg1 conc 200 [13]: 2 % of activity without ATIII
rsd. Xa hne; CA expt #8; stg1 conc 200 [13]: 1 % of activity without ATIII
rsd. Xa no add; CA expt #8; stg1 conc 200 [13]: 1 % of activity without ATIII
IC50 [14]: 19 nM
